Source: article PMC3646564 (Cell, 2013)

Columns and labels:
[1] = target: D. radiodurans PNPase lacking the KH domain (D. radiodurans) (UniProt Q9RSR1); assay: native gel or EMSA + other: negative stain electron microscopy
[2] = target: D. radiodurans PNPase lacking the S1 domain (D. radiodurans) (UniProt Q9RSR1); assay: as above
[3] = target: the molecule itself; assay: glycerol gradient sedimentation

“D. radiodurans PNPase lacking the KH domain (from UniProt Q9RSR1 1-779) (enzyme)” showed a stoichiometry N [1] of 3.

For “D. radiodurans PNPase lacking the S1 domain (from UniProt Q9RSR1 1-779) (enzyme)”, the stoichiometry N [2] was 3.

B1: Salmonella Typhimurium PNPase fused to 3 copies of FLAG (FLAG3-pnp) (enzyme, S. Typhimurium, UniProt Q8ZLT3 1-711, looked up)
chain: MLNPIVRKFQYGQHTVTLETGMMARQATAAVMVSMDDTAVFVTVVGQKKAKPGQDFFPLTVNYQERTYAAGRIPGSFFRREGRPSEGETLIARLIDRPVRPLFPEGFVNEVQVIATVVSVNPQVNPDIVAMIGASAALSLSGIPFNGPIGAARVGYINDQYVLNPTQDELKESKLDLVVAGTEAAVLMVESEAELLSEDTMLGAVVFGHEQQQVVIQAINDLVKEAGKPRWDWQPEAVNDALNARVAALAESRLSDAYRITDKQERYAQVDVIKSETIEQLIAEDETLDANELGEILHAIEKNVVRSRVLAGEPRIDGREKDMIRGLDVRTGVLPRTHGSALFTRGETQALVTATLGTARDAQVLDELMGERTDSFLFHYNFPPYSVGETGMVGSPKRREIGHGRLAKRGVLAVMPDMDKFPYTVRVVSEITESNGSSSMASVCGASLALMDAGVPIKAAVAGIAMGLVKEGDNYVVLSDILGDEDHLGDMDFKVAGSRDGISALQMDIKIEGITKEIMQVALNQAKGARLHILGVMEQAINAPRGDISEFAPRIHTIKISTDKIKDVIGKGGSVIRALTEETGTTIEIEDDGTVKIAATDGEKAKYAIRRIEEITAEIEVGRIYNGKVTRIVDFGAFVAIGGGKEGLVHISQIADKRVEKVTDYLQMGQEVPVKVLEVDRQGRVRLSIKEATEQSQPAAAPEAPASEQAE
In the case of B1, the “stoichiometry N” value [3] is reported as 3.
